Laboratory results from US20170101454A1 (Novo Nordisk, published 2017).
Starred links: 1 amine or outer side, 2 acyl side, 3 side chain; linkers in the order of their positions; H or OH if unused. Non-standard residues stand in square brackets, D forms with d. Groups on a side chain read outwards from the residue. No end group written: not given here. *: point of attachment. C18 diacid = O=C(O)CCCCCCCCCCCCCCCCC(=O)*; γGlu = O=C(O)[C@H](CCC(=O)[*:2])N[*:1]; Ac4c = NC1(C(=O)O)CCC1; AEEA = NCCOCCOCC(=O)O; Aib = CC(C)(N)C(=O)O

B1: N^ε28-[(4S)-4-carboxy-4-[[(4S)-4-carboxy-4-[[(4S)-4-carboxy-4-(17-carboxyheptadecanoylamino)butanoyl]amino]butanoyl]amino]butanoyl]-[Aib2,Leu10,Ala16,Arg20,Ile2 … (peptide)
peptide: H[Aib]QGTFTSDLSKYLDARRARDFVQWLIK([γGlu-γGlu-γGlu-C18 diacid])T-NH2
notes: also called Chem. 15; Chem 15
B2: N^ε28-[2-[2-[2-[[2-[2-[2-[[(4S)-4-carboxy-4-[[(4S)-4-carboxy-4-[[(4S)-4-carboxy-4-(17-carboxyheptadecanoylamino)butanoyl]amino]butanoyl]amino]butanoyl]amino]eth … (peptide)
peptide: H[Aib]QGTFTSDLSKYLDARRARDFVQWLIK([AEEA-AEEA-γGlu-γGlu-γGlu-C18 diacid])T-NH2
modifications: N-terminus assumed
SMILES: CC[C@H](C)[C@H](NC(=O)[C@H](CC(C)C)NC(=O)[C@H](Cc1c[nH]c2ccccc12)NC(=O)[C@H](CCC(N)=O)NC(=O)[C@@H](NC(=O)[C@H](Cc1ccccc1)NC(=O)[C@H](CC(=O)O)NC(=O)[C@H](CCCNC(=N)N)NC(=O)[C@H](C)NC(=O)[C@H](CCCNC(=N)N)NC(=O)[C@H](CCCNC(=N)N)NC(=O)[C@H](C)NC(=O)[C@H](CC(=O)O)NC(=O)[C@H](CC(C)C)NC(=O)[C@H](Cc1ccc(O)cc1)NC(=O)[C@H](CCCCN)NC(=O)[C@H](CO)NC(=O)[C@H](CC(C)C)NC(=O)[C@H](CC(=O)O)NC(=O)[C@H](CO)NC(=O)[C@@H](NC(=O)[C@H](Cc1ccccc1)NC(=O)[C@@H](NC(=O)CNC(=O)[C@H](CCC(N)=O)NC(=O)C(C)(C)NC(=O)[C@@H](N)Cc1c[nH]cn1)[C@@H](C)O)[C@@H](C)O)C(C)C)C(=O)N[C@@H](CCCCNC(=O)COCCOCCNC(=O)COCCOCCNC(=O)CC[C@H](NC(=O)CC[C@H](NC(=O)CC[C@H](NC(=O)CCCCCCCCCCCCCCCCC(=O)O)C(=O)O)C(=O)O)C(=O)O)C(=O)N[C@H](C(N)=O)[C@@H](C)O
notes: also called Chem. 5; Chem 5
B3: N^ε24-[2-[2-[2-[[2-[2-[2-[[(4S)-4-carboxy-4-[[(4S)-4-carboxy-4-[[(4S)-4-carboxy-4-(17-carboxyheptadecanoylamino)butanoyl]amino]butanoyl]amino]butanoyl]amino]eth … (peptide)
peptide: H[Aib]QGTFTSDYSKYLDARRAREFVK([AEEA-AEEA-γGlu-γGlu-γGlu-C18 diacid])WLIST-NH2
modifications: N-terminus assumed
SMILES: CC[C@H](C)[C@H](NC(=O)[C@H](CC(C)C)NC(=O)[C@H](Cc1c[nH]c2ccccc12)NC(=O)[C@H](CCCCNC(=O)COCCOCCNC(=O)COCCOCCNC(=O)CC[C@H](NC(=O)CC[C@H](NC(=O)CC[C@H](NC(=O)CCCCCCCCCCCCCCCCC(=O)O)C(=O)O)C(=O)O)C(=O)O)NC(=O)[C@@H](NC(=O)[C@H](Cc1ccccc1)NC(=O)[C@H](CCC(=O)O)NC(=O)[C@H](CCCNC(=N)N)NC(=O)[C@H](C)NC(=O)[C@H](CCCNC(=N)N)NC(=O)[C@H](CCCNC(=N)N)NC(=O)[C@H](C)NC(=O)[C@H](CC(=O)O)NC(=O)[C@H](CC(C)C)NC(=O)[C@H](Cc1ccc(O)cc1)NC(=O)[C@H](CCCCN)NC(=O)[C@H](CO)NC(=O)[C@H](Cc1ccc(O)cc1)NC(=O)[C@H](CC(=O)O)NC(=O)[C@H](CO)NC(=O)[C@@H](NC(=O)[C@H](Cc1ccccc1)NC(=O)[C@@H](NC(=O)CNC(=O)[C@H](CCC(N)=O)NC(=O)C(C)(C)NC(=O)[C@@H](N)Cc1c[nH]cn1)[C@@H](C)O)[C@@H](C)O)C(C)C)C(=O)N[C@@H](CO)C(=O)N[C@H](C(N)=O)[C@@H](C)O
notes: also called Chem. 4; Chem 4
B4: N^ε24-[2-[2-[2-[[2-[2-[2-[[(4S)-4-carboxy-4-[[(4S)-4-carboxy-4-[[(4S)-4-carboxy-4-(17-carboxyheptadecanoylamino)butanoyl]amino]butanoyl]amino]butanoyl]amino]eth … (peptide)
peptide: H[Aib]QGTFTSDYSKYLDAKRAREFVK([AEEA-AEEA-γGlu-γGlu-γGlu-C18 diacid])WLIST-NH2
modifications: N-terminus assumed
SMILES: CC[C@H](C)[C@H](NC(=O)[C@H](CC(C)C)NC(=O)[C@H](Cc1c[nH]c2ccccc12)NC(=O)[C@H](CCCCNC(=O)COCCOCCNC(=O)COCCOCCNC(=O)CC[C@H](NC(=O)CC[C@H](NC(=O)CC[C@H](NC(=O)CCCCCCCCCCCCCCCCC(=O)O)C(=O)O)C(=O)O)C(=O)O)NC(=O)[C@@H](NC(=O)[C@H](Cc1ccccc1)NC(=O)[C@H](CCC(=O)O)NC(=O)[C@H](CCCNC(=N)N)NC(=O)[C@H](C)NC(=O)[C@H](CCCNC(=N)N)NC(=O)[C@H](CCCCN)NC(=O)[C@H](C)NC(=O)[C@H](CC(=O)O)NC(=O)[C@H](CC(C)C)NC(=O)[C@H](Cc1ccc(O)cc1)NC(=O)[C@H](CCCCN)NC(=O)[C@H](CO)NC(=O)[C@H](Cc1ccc(O)cc1)NC(=O)[C@H](CC(=O)O)NC(=O)[C@H](CO)NC(=O)[C@@H](NC(=O)[C@H](Cc1ccccc1)NC(=O)[C@@H](NC(=O)CNC(=O)[C@H](CCC(N)=O)NC(=O)C(C)(C)NC(=O)[C@@H](N)Cc1c[nH]cn1)[C@@H](C)O)[C@@H](C)O)C(C)C)C(=O)N[C@@H](CO)C(=O)N[C@H](C(N)=O)[C@@H](C)O
notes: also called Chem. 2; Chem 2
B5: N^ε24-[2-[2-[2-[[2-[2-[2-[[(4S)-4-carboxy-4-[[(4S)-4-carboxy-4-[[(4S)-4-carboxy-4-(17-carboxyheptadecanoylamino)butanoyl]amino]butanoyl]amino]butanoyl]amino]eth … (peptide)
peptide: H[Aib]QGTFTSDYSKYLESRRARDFVK([AEEA-AEEA-γGlu-γGlu-γGlu-C18 diacid])WLIST-NH2
modifications: N-terminus assumed
SMILES: CC[C@H](C)[C@H](NC(=O)[C@H](CC(C)C)NC(=O)[C@H](Cc1c[nH]c2ccccc12)NC(=O)[C@H](CCCCNC(=O)COCCOCCNC(=O)COCCOCCNC(=O)CC[C@H](NC(=O)CC[C@H](NC(=O)CC[C@H](NC(=O)CCCCCCCCCCCCCCCCC(=O)O)C(=O)O)C(=O)O)C(=O)O)NC(=O)[C@@H](NC(=O)[C@H](Cc1ccccc1)NC(=O)[C@H](CC(=O)O)NC(=O)[C@H](CCCNC(=N)N)NC(=O)[C@H](C)NC(=O)[C@H](CCCNC(=N)N)NC(=O)[C@H](CCCNC(=N)N)NC(=O)[C@H](CO)NC(=O)[C@H](CCC(=O)O)NC(=O)[C@H](CC(C)C)NC(=O)[C@H](Cc1ccc(O)cc1)NC(=O)[C@H](CCCCN)NC(=O)[C@H](CO)NC(=O)[C@H](Cc1ccc(O)cc1)NC(=O)[C@H](CC(=O)O)NC(=O)[C@H](CO)NC(=O)[C@@H](NC(=O)[C@H](Cc1ccccc1)NC(=O)[C@@H](NC(=O)CNC(=O)[C@H](CCC(N)=O)NC(=O)C(C)(C)NC(=O)[C@@H](N)Cc1c[nH]cn1)[C@@H](C)O)[C@@H](C)O)C(C)C)C(=O)N[C@@H](CO)C(=O)N[C@H](C(N)=O)[C@@H](C)O
notes: also called Chem. 11; Chem 11
B6: N^ε24-[2-[2-[2-[[2-[2-[2-[[(4S)-4-carboxy-4-[[(4S)-4-carboxy-4-[[(4S)-4-carboxy-4-(17-carboxyheptadecanoylamino)butanoyl]amino]butanoyl]amino]butanoyl]amino]eth … (peptide)
peptide: H[Aib]QGTFTSDYSKYLDLRRARDFVK([AEEA-AEEA-γGlu-γGlu-γGlu-C18 diacid])WLIST-NH2
modifications: N-terminus assumed
SMILES: CC[C@H](C)[C@H](NC(=O)[C@H](CC(C)C)NC(=O)[C@H](Cc1c[nH]c2ccccc12)NC(=O)[C@H](CCCCNC(=O)COCCOCCNC(=O)COCCOCCNC(=O)CC[C@H](NC(=O)CC[C@H](NC(=O)CC[C@H](NC(=O)CCCCCCCCCCCCCCCCC(=O)O)C(=O)O)C(=O)O)C(=O)O)NC(=O)[C@@H](NC(=O)[C@H](Cc1ccccc1)NC(=O)[C@H](CC(=O)O)NC(=O)[C@H](CCCNC(=N)N)NC(=O)[C@H](C)NC(=O)[C@H](CCCNC(=N)N)NC(=O)[C@H](CCCNC(=N)N)NC(=O)[C@H](CC(C)C)NC(=O)[C@H](CC(=O)O)NC(=O)[C@H](CC(C)C)NC(=O)[C@H](Cc1ccc(O)cc1)NC(=O)[C@H](CCCCN)NC(=O)[C@H](CO)NC(=O)[C@H](Cc1ccc(O)cc1)NC(=O)[C@H](CC(=O)O)NC(=O)[C@H](CO)NC(=O)[C@@H](NC(=O)[C@H](Cc1ccccc1)NC(=O)[C@@H](NC(=O)CNC(=O)[C@H](CCC(N)=O)NC(=O)C(C)(C)NC(=O)[C@@H](N)Cc1c[nH]cn1)[C@@H](C)O)[C@@H](C)O)C(C)C)C(=O)N[C@@H](CO)C(=O)N[C@H](C(N)=O)[C@@H](C)O
notes: also called Chem. 12; Chem 12
B7: N^ε24-[2-[2-[2-[[2-[2-[2-[[(4S)-4-carboxy-4-[[(4S)-4-carboxy-4-[[(4S)-4-carboxy-4-(17-carboxyheptadecanoylamino)butanoyl]amino]butanoyl]amino]butanoyl]amino]eth … (peptide)
peptide: H[Aib]QGTFTSDYSKYLDARRARDFVK([AEEA-AEEA-γGlu-γGlu-γGlu-C18 diacid])WLIST-NH2
modifications: N-terminus assumed
SMILES: CC[C@H](C)[C@H](NC(=O)[C@H](CC(C)C)NC(=O)[C@H](Cc1c[nH]c2ccccc12)NC(=O)[C@H](CCCCNC(=O)COCCOCCNC(=O)COCCOCCNC(=O)CC[C@H](NC(=O)CC[C@H](NC(=O)CC[C@H](NC(=O)CCCCCCCCCCCCCCCCC(=O)O)C(=O)O)C(=O)O)C(=O)O)NC(=O)[C@@H](NC(=O)[C@H](Cc1ccccc1)NC(=O)[C@H](CC(=O)O)NC(=O)[C@H](CCCNC(=N)N)NC(=O)[C@H](C)NC(=O)[C@H](CCCNC(=N)N)NC(=O)[C@H](CCCNC(=N)N)NC(=O)[C@H](C)NC(=O)[C@H](CC(=O)O)NC(=O)[C@H](CC(C)C)NC(=O)[C@H](Cc1ccc(O)cc1)NC(=O)[C@H](CCCCN)NC(=O)[C@H](CO)NC(=O)[C@H](Cc1ccc(O)cc1)NC(=O)[C@H](CC(=O)O)NC(=O)[C@H](CO)NC(=O)[C@@H](NC(=O)[C@H](Cc1ccccc1)NC(=O)[C@@H](NC(=O)CNC(=O)[C@H](CCC(N)=O)NC(=O)C(C)(C)NC(=O)[C@@H](N)Cc1c[nH]cn1)[C@@H](C)O)[C@@H](C)O)C(C)C)C(=O)N[C@@H](CO)C(=O)N[C@H](C(N)=O)[C@@H](C)O
notes: also called Chem. 1; Chem 1
B8: N^ε28-[2-[2-[2-[[2-[2-[2-[[(4S)-4-carboxy-4-[[(4S)-4-carboxy-4-(17-carboxyheptadecanoylamino)butanoyl]amino]butanoyl]amino]ethoxy]ethoxy]acetyl]amino]ethoxy]eth … (peptide)
peptide: H[Ac4c]QGTFTSDLSKYLESRRAREFVQWLIK([AEEA-AEEA-γGlu-γGlu-C18 diacid])T-NH2
notes: also called Chem. 18; Chem 18

What follows are binders tested against T1, human GLP-1 receptor (human, UniProt P43220 24-463) (assay: cell-based or functional assay).

| GLP-1R EC50 (pM) [Assay (I)(a)], CRE luciferase reporter, BHK cells [pM] | Binder |
| --- | --- |
| 4 | B1 |
| 5.5 | B2 |
| 3 | B3 |
| 2 | B4 |
| 8 | B5 |
| 29 | B6 |
| 3.5 | B7 |
| 4 | B8 |

The binders below were run against T2, human glucagon receptor (human, UniProt P47871 26-477) (assay: cell-based or functional assay).
T2 sequence (P47871 26-477): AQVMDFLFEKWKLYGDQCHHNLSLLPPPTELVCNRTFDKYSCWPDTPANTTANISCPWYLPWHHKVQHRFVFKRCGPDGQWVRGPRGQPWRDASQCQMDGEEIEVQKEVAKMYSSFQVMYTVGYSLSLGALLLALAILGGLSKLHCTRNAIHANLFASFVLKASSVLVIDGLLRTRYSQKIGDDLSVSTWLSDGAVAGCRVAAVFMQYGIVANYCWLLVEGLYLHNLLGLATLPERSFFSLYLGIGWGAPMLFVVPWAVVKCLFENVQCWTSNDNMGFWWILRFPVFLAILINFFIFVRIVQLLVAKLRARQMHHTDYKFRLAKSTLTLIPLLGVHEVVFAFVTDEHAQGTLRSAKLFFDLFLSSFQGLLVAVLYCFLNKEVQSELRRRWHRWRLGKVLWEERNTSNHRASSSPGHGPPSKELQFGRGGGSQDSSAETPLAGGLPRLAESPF

| GlucagonR EC50 (pM), [Assay (I)(b)], CRE luciferase reporter, BHK cells [pM] | Binder |
| --- | --- |
| 7 | B1 |
| 29 | B2 |
| 12 | B3 |
| 10 | B4 |
| 428 | B5 |
| 108 | B6 |
| 17.5 | B7 |
| 32 | B8 |

The binders below were run against T2, human glucagon receptor (assay: displacement of [125I]-glucagon from BHK membranes with human glucagon receptor, SPA, no serum albumin).

| IC50 [nM] | Binder |
| --- | --- |
| 1.7 | B1 |
| 6.7 | B2 |
| 3.9 | B3 |
| 7.5 | B4 |
| 52 | B5 |
| 95.9 | B6 |
| 11.3 | B7 |
| 11.1 | B8 |

What follows are binders tested against T1, human GLP-1 receptor (assay: displacement of [125I]-GLP-1-(7-36)NH2 from BHK membranes with human GLP-1R, SPA, no serum albumin).

| IC50 [nM] | Binder |
| --- | --- |
| 0.1 | B2 |
| 0.1 | B3 |
| 0.3 | B4 |
| 0.5 | B5 |
| 2.8 | B6 |
| 0.9 | B7 |
| 0.1 | B8 |
